Source: PMC7062719, “Full-length human GLP-1 receptor structure without orthosteric ligands” (Nature Communications, 2020)

Target: T1, Human GLP-1R (Arg24-Leu422) fragment (human, UniProt P43220)
T1 construct: GLP-1 receptor, human, residues Arg24-Leu422; N-terminal HA-FLAG-B2-HRV14-3C tags and C-terminal HPC4-HRV14-3C-10x His tags; no 3C cleavage is described; also called detergent solubilized GLP-1R; source: Sf9 insect cells, baculovirus, co-expressed with DNGαs and Gβ1γ2; solubilised in LMNG/CHS, purified as a complex (HPC4 resin, SEC); not shown: HPC4, C-terminal, kept
T1 sequence (P43220 24-422): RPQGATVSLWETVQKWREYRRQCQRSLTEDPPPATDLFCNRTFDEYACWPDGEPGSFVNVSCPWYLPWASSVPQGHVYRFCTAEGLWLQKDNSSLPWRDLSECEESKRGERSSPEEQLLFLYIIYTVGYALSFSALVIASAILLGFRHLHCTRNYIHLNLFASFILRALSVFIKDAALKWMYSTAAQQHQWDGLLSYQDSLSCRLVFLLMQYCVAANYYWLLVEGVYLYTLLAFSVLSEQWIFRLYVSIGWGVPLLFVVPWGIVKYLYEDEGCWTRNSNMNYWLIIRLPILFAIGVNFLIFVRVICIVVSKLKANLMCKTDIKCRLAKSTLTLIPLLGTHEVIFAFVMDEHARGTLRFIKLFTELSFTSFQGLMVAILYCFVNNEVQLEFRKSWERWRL
Experiment: SEC + other: negative stain EM; Fab7F38 added at an estimated 1:1 ratio to the HPC4-purified GLP-1R–semaglutide–Gs–Nb35 complex, SEC on Superose 6 Increase (20 mM HEPES pH 7.5, 100 mM NaCl, 2 mM MgCl2, 1 μM semaglutide, LMNG/CHS), peak fraction used for single-particle 2D class averages
Settings: both partners purified

B1: Fab7F38 (Fab, V domains shown)
VH: EVQLQQSGPELVKPGASVKMSCKAPGYTFTSYVTHWVKQKPGQGLEWIGYINPYNDSPKYNEKYKAKATLTSDKSSSTVYMELSSLTSEDSAVYYCARIGYFRYDEGGNYALDYWGQGTSVTVSS
VL: QIVLTQSPAIMSASPGEKVTISCSASSSVSYMYWYQQKPGSSPKPWIYRTSKLASGVPVRFSGSGSGTSYSLTISNMEAEDAATYYCQQFHTYPWTFGGGTKLEIK
notes: source: ExpiCHO-S cells, transient transfection, purified (Protein G Sepharose, SEC Superdex 75)
B1: binds.
